Test results from paper PMC9802395, “Intratumoral nanobody–IL-2 fusions that bind the tumor extracellular matrix suppress solid tumor growth in mice” (PNAS Nexus, 2022).
Substitutions are numbered along the chain they refer to. Numbers in names are those of the source.

B1: LMJ1.2G (VHH)
VHH: QVQLVETGGGLVQAGGSLRLSCAASGSTFSHSAGGWYRQAPEKQRELVAGIGSDGNINYADSVKDRFTISRDNASNTMYLQMNNLKPEDTAVYVCNIRGSYGNTYYSRWGQGTQVTVSS
B2: LMJ2.5C (VHH)
VHH: B1 VHH with I51V, G52R, T113I
B3: LMJ2.5J (VHH)
VHH: B1 VHH with G8R, A24V, D54A
B4: LMJ1.3J (VHH)
VHH: B1 VHH with E6G, G52S, D54A
B5: LMJ2.6A (VHH)
VHH: B1 VHH with Q1R, A24V, S27R, G52R, E88G
B6: LMJ1.2C nanobody, biotin-tagged (VHH)
VHH: B1 VHH with G52R
notes: The text says the nanobodies for BLI were purified with C-terminal polyhistidine tags; source: E. coli WK6, periplasm, purified (Ni-NTA), then sortase-tagged with biotin; not shown: LPETG sortase motif, C-terminal, kept; His6, C-terminal, cleaved
B7: LMJ2.5I nanobody, biotin-tagged (VHH)
VHH: B1 VHH with Q1R, A24V, G52R, T113A
notes: as for B6
B8: NJB2-IL2 (NJB2 nanobody fused to murine IL-2) (VHH)
VHH: B1 VHH with S32N, G52S
notes: glycine–serine (G5S) linker; murine interleukin-2; about 32 kDa; source: HEK293 cells, transfected, purified (TALON; some by SEC)
B9: NJT6-IL2 (NJT6 nanobody fused to murine IL-2) (VHH)
VHH: QVQLVETGGDLVQPGGSLRLSCAASGLTLDYYAIGWVRQAPGKEREGVSCITPQDGNTYYDDSVMGRFTILRDNAKNMVYLQMNNLKPEDTAVYFCAAAGALTLDPSEYEYWGQGTQVTVSS
notes: glycine–serine (G5S) linker; murine interleukin-2; size-matched control; also called untargeted IL-2; source: HEK293 cells, transfected, purified (TALON; some by SEC)

biological target: T1, biotinylated EIIIB (protein fragment of fibronectin splice variant EIIIB) (Homo sapiens (sequence identical in …, UniProt P02751, strain, biotin (ChromaLink NHS-biotin reagent))); assay: not given; conditions: not given
Target sequence in this assay (P02751 1266-1356, change not shown): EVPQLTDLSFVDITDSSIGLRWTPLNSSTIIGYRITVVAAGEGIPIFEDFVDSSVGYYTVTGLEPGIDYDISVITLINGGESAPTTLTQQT

Q: Does B1 bind?
A: Result: binds

Q: Does B2 bind?
A: Result: binds

Q: Does B3 bind?
A: Result: binds

Q: Does B4 bind?
A: Result: binds

Q: Does B5 bind?
A: Result: binds

biological target: T1, biotinylated EIIIB (protein fragment of …); assay: BLI; biotinylated EIIIB immobilised on streptavidin tips (2 μg/mL); nanobody or IL-2 fusion as analyte, 0.1 to 350 nM; PBS with 0.05% Tween-20 and 1% recombinant human albumin; 1:1 binding model, global fit, double referencing; conditions: both partners purified

Q: B6 was tested. Which Kd did it give?
A: The Kd was 300 pM.

Q: B7 was tested. Which Kd did it give?
A: Its Kd is 25 pM.

Q: How did the Kd turn out when B8 was run?
A: Its Kd is 2000 pM.

Q: Does B9 bind?
A: Result: no binding (tested: 100 nM)
